Assay results reported in patent publication US20120322725A1 (INDIANA UNIVERSITY RESEARCH AND TECHNOLOGY, published 2012).
Read-outs that look alike come from different tables or passages of the source. Bridge positions count the residues as written; N and C are the ends. Square brackets hold non-standard residues; d marks the D form. Ends that are not written are not given here. * marks the point of attachment. Carboxymethyl = O=C(O)C*; NSG‑1 = not defined here; NSG‑2 = not defined here

B1: [hGlu^9]Glucagon(aa6-29)-NH2 (peptide)
peptide: FTSXYSKYLDSRRAQDFVQWLMNT
HELM: PEPTIDE1{F.T.S.[O=C(O)CCC[C@H](N[*:1])C(=O)[*:2]].Y.S.K.Y.L.D.S.R.R.A.Q.D.F.V.Q.W.L.M.N.T.[am]}$$$$V2.0; N-terminus assumed
SMILES: CSCC[C@H](NC(=O)[C@H](CC(C)C)NC(=O)[C@H](Cc1c[nH]c2ccccc12)NC(=O)[C@H](CCC(N)=O)NC(=O)[C@@H](NC(=O)[C@H](Cc1ccccc1)NC(=O)[C@H](CC(=O)O)NC(=O)[C@H](CCC(N)=O)NC(=O)[C@H](C)NC(=O)[C@H](CCCNC(=N)N)NC(=O)[C@H](CCCNC(=N)N)NC(=O)[C@H](CO)NC(=O)[C@H](CC(=O)O)NC(=O)[C@H](CC(C)C)NC(=O)[C@H](Cc1ccc(O)cc1)NC(=O)[C@H](CCCCN)NC(=O)[C@H](CO)NC(=O)[C@H](Cc1ccc(O)cc1)NC(=O)[C@H](CCCC(=O)O)NC(=O)[C@H](CO)NC(=O)[C@@H](NC(=O)[C@@H](N)Cc1ccccc1)[C@@H](C)O)C(C)C)C(=O)N[C@@H](CC(N)=O)C(=O)N[C@H](C(N)=O)[C@@H](C)O
notes: also called [hE^9]Glucagon(aa6-29)-NH2; peptide no
B2: [desHis^1, desPhe^6, hCys^9(SO3^-), Phe^25, Leu^27]Glucagon-NH2 (peptide)
peptide: SQGTTSXYSKYLDSRRAQDFVQFLLNT
HELM: PEPTIDE1{S.Q.G.T.T.S.[O=C([C@H](CCS(=O)(=O)O)N[*:1])[*:2]].Y.S.K.Y.L.D.S.R.R.A.Q.D.F.V.Q.F.L.L.N.T.[am]}$$$$V2.0; N-terminus assumed
SMILES: CC(C)C[C@H](NC(=O)[C@H](Cc1ccc(O)cc1)NC(=O)[C@H](CCCCN)NC(=O)[C@H](CO)NC(=O)[C@H](Cc1ccc(O)cc1)NC(=O)[C@H](CCS(=O)(=O)O)NC(=O)[C@H](CO)NC(=O)[C@@H](NC(=O)[C@@H](NC(=O)CNC(=O)[C@H](CCC(N)=O)NC(=O)[C@@H](N)CO)[C@@H](C)O)[C@@H](C)O)C(=O)N[C@@H](CC(=O)O)C(=O)N[C@@H](CO)C(=O)N[C@@H](CCCNC(=N)N)C(=O)N[C@@H](CCCNC(=N)N)C(=O)N[C@@H](C)C(=O)N[C@@H](CCC(N)=O)C(=O)N[C@@H](CC(=O)O)C(=O)N[C@@H](Cc1ccccc1)C(=O)N[C@H](C(=O)N[C@@H](CCC(N)=O)C(=O)N[C@@H](Cc1ccccc1)C(=O)N[C@@H](CC(C)C)C(=O)N[C@@H](CC(C)C)C(=O)N[C@@H](CC(N)=O)C(=O)N[C@H](C(N)=O)[C@@H](C)O)C(C)C
notes: also called Cmpd
B3: [PLA6, D9]Glucagon(aa6-29)-COOH (peptide)
peptide: XTSDYSKYLDSRRAQDFVQWLMNT
HELM: PEPTIDE1{[O=C([C@@H](O)Cc1ccccc1)[*:2]].T.S.D.Y.S.K.Y.L.D.S.R.R.A.Q.D.F.V.Q.W.L.M.N.T}$$$$V2.0; N-terminus assumed
SMILES: CSCC[C@H](NC(=O)[C@H](CC(C)C)NC(=O)[C@H](Cc1c[nH]c2ccccc12)NC(=O)[C@H](CCC(N)=O)NC(=O)[C@@H](NC(=O)[C@H](Cc1ccccc1)NC(=O)[C@H](CC(=O)O)NC(=O)[C@H](CCC(N)=O)NC(=O)[C@H](C)NC(=O)[C@H](CCCNC(=N)N)NC(=O)[C@H](CCCNC(=N)N)NC(=O)[C@H](CO)NC(=O)[C@H](CC(=O)O)NC(=O)[C@H](CC(C)C)NC(=O)[C@H](Cc1ccc(O)cc1)NC(=O)[C@H](CCCCN)NC(=O)[C@H](CO)NC(=O)[C@H](Cc1ccc(O)cc1)NC(=O)[C@H](CC(=O)O)NC(=O)[C@H](CO)NC(=O)[C@@H](NC(=O)[C@@H](O)Cc1ccccc1)[C@@H](C)O)C(C)C)C(=O)N[C@@H](CC(N)=O)C(=O)N[C@H](C(=O)O)[C@@H](C)O
B4: [(CSA-1)^9]Glucagon(aa2-29)-NH2 (peptide)
peptide: SQGTFTSC(Carboxymethyl)YSKYLDSRRAQDFVQWLMNT-NH2
modifications: N-terminus assumed
SMILES: CSCC[C@H](NC(=O)[C@H](CC(C)C)NC(=O)[C@H](Cc1c[nH]c2ccccc12)NC(=O)[C@H](CCC(N)=O)NC(=O)[C@@H](NC(=O)[C@H](Cc1ccccc1)NC(=O)[C@H](CC(=O)O)NC(=O)[C@H](CCC(N)=O)NC(=O)[C@H](C)NC(=O)[C@H](CCCNC(=N)N)NC(=O)[C@H](CCCNC(=N)N)NC(=O)[C@H](CO)NC(=O)[C@H](CC(=O)O)NC(=O)[C@H](CC(C)C)NC(=O)[C@H](Cc1ccc(O)cc1)NC(=O)[C@H](CCCCN)NC(=O)[C@H](CO)NC(=O)[C@H](Cc1ccc(O)cc1)NC(=O)[C@H](CSCC(=O)O)NC(=O)[C@H](CO)NC(=O)[C@@H](NC(=O)[C@H](Cc1ccccc1)NC(=O)[C@@H](NC(=O)CNC(=O)[C@H](CCC(N)=O)NC(=O)[C@@H](N)CO)[C@@H](C)O)[C@@H](C)O)C(C)C)C(=O)N[C@@H](CC(N)=O)C(=O)N[C@H](C(N)=O)[C@@H](C)O
notes: also called peptide no
B5: [(CSA-2)^9]Glucagon(aa2-29)-NH2 (peptide)
peptide: SQGTFTSCYSKYLDSRRAQDFVQWLMNT
HELM: PEPTIDE1{S.Q.G.T.F.T.S.[O=C(O)CCSC[C@H](N[*:1])C(=O)[*:2]].Y.S.K.Y.L.D.S.R.R.A.Q.D.F.V.Q.W.L.M.N.T.[am]}$$$$V2.0; N-terminus assumed
SMILES: CSCC[C@H](NC(=O)[C@H](CC(C)C)NC(=O)[C@H](Cc1c[nH]c2ccccc12)NC(=O)[C@H](CCC(N)=O)NC(=O)[C@@H](NC(=O)[C@H](Cc1ccccc1)NC(=O)[C@H](CC(=O)O)NC(=O)[C@H](CCC(N)=O)NC(=O)[C@H](C)NC(=O)[C@H](CCCNC(=N)N)NC(=O)[C@H](CCCNC(=N)N)NC(=O)[C@H](CO)NC(=O)[C@H](CC(=O)O)NC(=O)[C@H](CC(C)C)NC(=O)[C@H](Cc1ccc(O)cc1)NC(=O)[C@H](CCCCN)NC(=O)[C@H](CO)NC(=O)[C@H](Cc1ccc(O)cc1)NC(=O)[C@H](CSCCC(=O)O)NC(=O)[C@H](CO)NC(=O)[C@@H](NC(=O)[C@H](Cc1ccccc1)NC(=O)[C@@H](NC(=O)CNC(=O)[C@H](CCC(N)=O)NC(=O)[C@@H](N)CO)[C@@H](C)O)[C@@H](C)O)C(C)C)C(=O)N[C@@H](CC(N)=O)C(=O)N[C@H](C(N)=O)[C@@H](C)O
notes: also called peptide no
B6: [desHis^1, hCys^9(SO3^-), Phe^25, Leu^27]Glucagon-NH2 (peptide)
peptide: SQGTFTSXYSKYLDSRRAQDFVQFLLNT
HELM: PEPTIDE1{S.Q.G.T.F.T.S.[O=C([C@H](CCS(=O)(=O)O)N[*:1])[*:2]].Y.S.K.Y.L.D.S.R.R.A.Q.D.F.V.Q.F.L.L.N.T.[am]}$$$$V2.0; N-terminus assumed
SMILES: CC(C)C[C@H](NC(=O)[C@H](Cc1ccc(O)cc1)NC(=O)[C@H](CCCCN)NC(=O)[C@H](CO)NC(=O)[C@H](Cc1ccc(O)cc1)NC(=O)[C@H](CCS(=O)(=O)O)NC(=O)[C@H](CO)NC(=O)[C@@H](NC(=O)[C@H](Cc1ccccc1)NC(=O)[C@@H](NC(=O)CNC(=O)[C@H](CCC(N)=O)NC(=O)[C@@H](N)CO)[C@@H](C)O)[C@@H](C)O)C(=O)N[C@@H](CC(=O)O)C(=O)N[C@@H](CO)C(=O)N[C@@H](CCCNC(=N)N)C(=O)N[C@@H](CCCNC(=N)N)C(=O)N[C@@H](C)C(=O)N[C@@H](CCC(N)=O)C(=O)N[C@@H](CC(=O)O)C(=O)N[C@@H](Cc1ccccc1)C(=O)N[C@H](C(=O)N[C@@H](CCC(N)=O)C(=O)N[C@@H](Cc1ccccc1)C(=O)N[C@@H](CC(C)C)C(=O)N[C@@H](CC(C)C)C(=O)N[C@@H](CC(N)=O)C(=O)N[C@H](C(N)=O)[C@@H](C)O)C(C)C
notes: also called Cmpd

Assays:
[1] = target: T1, glucagon receptor (UniProt P47871 26-477, limits assumed); test: cell-based or functional assay
T1 sequence (P47871 26-477 limits assumed): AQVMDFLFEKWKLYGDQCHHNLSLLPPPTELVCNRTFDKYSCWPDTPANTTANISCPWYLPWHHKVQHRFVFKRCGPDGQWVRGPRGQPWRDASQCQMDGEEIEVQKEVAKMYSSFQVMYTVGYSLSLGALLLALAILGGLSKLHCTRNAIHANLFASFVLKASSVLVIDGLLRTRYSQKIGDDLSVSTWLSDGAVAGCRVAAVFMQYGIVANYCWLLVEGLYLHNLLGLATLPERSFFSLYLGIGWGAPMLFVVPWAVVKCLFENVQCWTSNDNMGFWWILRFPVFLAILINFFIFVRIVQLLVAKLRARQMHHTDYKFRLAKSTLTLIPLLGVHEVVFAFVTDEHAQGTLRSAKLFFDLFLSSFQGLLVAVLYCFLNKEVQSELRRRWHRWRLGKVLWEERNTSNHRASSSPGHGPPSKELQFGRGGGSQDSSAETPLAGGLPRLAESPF

[2] = target: T1, glucagon receptor; test: receptor binding (named so for the same values in Table I), method not described
[3] = target: T1, glucagon receptor; test: cell-based or functional assay; remark: listed apart in the source
[4] = target: T1, glucagon receptor; test: receptor binding, method not described
[5] = target: T1, glucagon receptor; test: cell-based or functional assay; remark: listed apart in the source
[6] = target: T1, glucagon receptor; test: receptor binding, method not described; remark: listed apart in the source
[7] = target: T1, glucagon receptor; test: cell-based or functional assay; remark: listed apart in the source
[8] = target: T1, glucagon receptor; test: assay not named in Table F; taken as receptor binding
[9] = target: T1, glucagon receptor; test: cell-based or functional assay; remark: listed apart in the source
[10] = target: T1, glucagon receptor; test: receptor binding, method not described; remark: listed apart in the source

| Binder | IC50 [6] [nM] | cAMP Induction EC50 [7] [nM] | IC50 [8] [nM] | other results |
| --- | --- | --- | --- | --- |
| B1 |  |  |  | cAMP (I/A)50 [1]: 2360; cAMP pA2 [1]: 6.27; IC50 [2]: 163 nM; cAMP IC50 [3]: 472 nM; cAMP pA2 [3]: 6.27; IC50 [4]: 163 nM |
| AEGTFTSEYSKYLDERRAKDFVQWLMDT (lactam 15-19) [[A2E3, E16K20(Lactam),D28]G(2~29)] |  |  |  | Glucagon IC50 [5]: 63 nM |
| SQGTTSDYSKYLDSRRAQDFVQWLMNT-NH2 (also called Cmpd) [[desHis^1, desPhe^6]Glucagon-NH2] | 130 | 1180 |  |  |
| B2 | 53.3 | 3210 |  | cAMP Inhibition IC50 [7]: 9220 nM |
| SQGTFTS[NSG‑1]YSKYLDSRRAQDFVQWLMNT-NH2 (reading uncertain, also called peptide no) [[(NSG-1)^9]Glucagon(aa2-29)-NH2] |  |  | 983 |  |
| XTSDYSKYLDSRRAQDFVQWLMDT (PLA at position 6, N-terminal to residues 7-29; C-terminal amide) [[PLA6, D9, D28]Glucagon(aa6-29)-NH2] |  |  |  | IC50(nM) (cAMP, inhibit Glucagon) 0.1 nM or 0.2 nM [9]: 1.32 nM; IC50 [10]: 9 nM |
| B3 |  |  |  | IC50(nM) (cAMP, inhibit Glucagon) 0.1 nM or 0.2 nM [9]: 13.2 nM; IC50 [10]: 15.5 nM |
| SQGTFTS[NSG‑2]YSKYLDSRRAQDFVQWLMNT-NH2 (reading uncertain, also called peptide no) [[(NSG-2)^9]Glucagon(aa2-29)-NH2] |  |  | 2350 |  |
| B4 |  |  | 12.7 |  |
| SQLTFTSEYSKYLDSRRAQDFVQWLMNT-NH2 (also called Cmpd) [[desHis^1, Leu^4, Glu^9]Glucagon-NH2] | 36.9 | 318 |  | cAMP Inhibition IC50 [7]: 102 nM |
| B5 |  |  | 13.3 |  |
| SQGTFTSEYSKYLDSRRAQDFVQFLLNT-NH2 [[desHis^1, Glu^9, Phe^25, Leu^27]Glucagon-NH2] | 12.6 | 81 |  |  |
| SQGTFTSXYSKYLDSRRAQDFVQWLMNT (homoglutamic acid at position 9; C-terminal amide, also called peptide no) [[hGlu^9]Glucagon(aa2-29)-NH2] |  |  | 8.1 |  |
| B6 | 13.9 | 430 |  |  |
